Assays:
[1] = molecular target: the molecule itself; assay: SEC; 10-15 µg of purified enzyme (low enzyme concentration) on a 10 mL Superdex 200 column; 50 mM Tris pH 7.5, 200 mM NaCl; masses and oligomerization states from a Bio-Rad gel filtration standard curve
[2] = molecular target: the molecule itself; assay: SEC; data not shown; oligomerization state of the mutant enzymes, method as told for the A3 enzymes (Superdex 200, 50 mM Tris pH 7.5, 200 mM NaCl)

| Protein | stoichiometry N [1] | stoichiometry N [2] |
| --- | --- | --- |
| APOBEC3F (enzyme, human, UniProt Q8IUX4 1-373, looked up, also called A3F; not shown: GST, N-terminal, cleaved) MKPHFRNTVERMYRDTFSYNFYNRPILSRRNTVWLCYEVKTKGPSRPRLDAKIFRGQVYSQPEHHAEMCFLSWFCGNQLPAYKCFQITWFVSWTPCPDCVAKLAEFLAEHPNVTLTISAARLYYYWERDYRRALCRLSQAGARVKIMDDEEFAYCWENFVYSEGQPFMPWYKFDDNYAFLHRTLKEILRNPMEAMYPHIFYFHFKNLRKAYGRNESWLCFTMEVVKHHSPVSWKRGVFRNQVDPETHCHAERCFLSWFCDDILSPNTNYEVTWYTSWSPCPECAGEVAEFLARHSNVNLTIFTARLYYFWDTDYQEGLRSLSQEGASVEIMGYKDFKYCWENFVYNDDEPFKPWKGLKYNFLFLDSKLQEILE | 4 |  |
| APOBEC3F NGM mutant (enzyme, human, UniProt Q8IUX4 1-373, looked up, also called A3F NGM; A3F 190NGM192; not shown: GST, N-terminal, cleaved) MKPHFRNTVERMYRDTFSYNFYNRPILSRRNTVWLCYEVKTKGPSRPRLDAKIFRGQVYSQPEHHAEMCFLSWFCGNQLPAYKCFQITWFVSWTPCPDCVAKLAEFLAEHPNVTLTISAARLYYYWERDYRRALCRLSQAGARVKIMDDEEFAYCWENFVYSEGQPFMPWYKFDDNYAFLHRTLKEILRNGMEAMYPHIFYFHFKNLRKAYGRNESWLCFTMEVVKHHSPVSWKRGVFRNQVDPETHCHAERCFLSWFCDDILSPNTNYEVTWYTSWSPCPECAGEVAEFLARHSNVNLTIFTARLYYFWDTDYQEGLRSLSQEGASVEIMGYKDFKYCWENFVYNDDEPFKPWKGLKYNFLFLDSKLQEILE |  | 4 |

Source: publication PMC3961392 (PLoS Pathogens, 2014)
